Experimental data from article PMC8673628.

Assays:
[1] = target: Thioredoxin reductase from Sphingomonas sp. PAMC 26621 (SpTR) (Sphingomonas sp. PAMC 26621)
[2] = target: Thioredoxin reductase from Sphingomonas sp. PAMC 26621 (SpTR) (Sphingomonas sp. PAMC 26621); test: SEC; Superdex 200 10/300 GL gel filtration in buffer D (50 mM sodium phosphate, pH 7.2, 100 mM NaCl); molecular weight against a protein standard mix

SpTrx F26A mutant (natural protein)
Km of SpTR for SpTrx F26A as substrate, 4°C (DTNB reduction at 412 nm, 50 nM SpTR, 0.1-10 μM Trx) [1]: 6.8 µM
Km of SpTR for SpTrx F26A as substrate, 30°C (DTNB reduction at 412 nm, 50 nM SpTR, 0.1-10 μM Trx) [1]: 6.41 µM

SpTrx F26W mutant (natural protein)
Km of SpTR for SpTrx F26W as substrate, 4°C (DTNB reduction at 412 nm, 50 nM SpTR, 0.1-10 μM Trx) [1]: 1.24 µM
Km of SpTR for SpTrx F26W as substrate, 30°C (DTNB reduction at 412 nm, 50 nM SpTR, 0.1-10 μM Trx) [1]: 0.66 µM

SpTrx F26Y mutant (natural protein)
Km of SpTR for SpTrx F26Y as substrate, 4°C (DTNB reduction at 412 nm, 50 nM SpTR, 0.1-10 μM Trx) [1]: 1.17 µM
Km of SpTR for SpTrx F26Y as substrate, 30°C (DTNB reduction at 412 nm, 50 nM SpTR, 0.1-10 μM Trx) [1]: 0.6 µM

Thioredoxin reductase from Sphingomonas sp. PAMC 26621 (SpTR) (enzyme)
stoichiometry N [2]: 2

Thioredoxin from the psychrophilic Arctic bacterium Sphingomonas sp. PAMC 26621 (SpTrx), wild type (natural protein)
Km of SpTR for SpTrx as substrate, 4°C (DTNB reduction at 412 nm, 50 nM SpTR, 0.1-10 μM Trx) [1]: 1.1 µM
Km of SpTR for SpTrx as substrate, 30°C (DTNB reduction at 412 nm, 50 nM SpTR, 0.1-10 μM Trx) [1]: 0.63 µM
